# Laboratory results from patent US20050147610A1 (AbbVie / Abbott, published 2005).
# Numbering of substitutions follows the chain as printed. Several values for one entry are separate records, joined by “and”; a condition that tells them apart may be missing. Identical values can stand only once. Like-named read-outs stand apart in the source and are kept apart here.
# B1: 2.13.1 (antibody, V domains shown)
# VH: ZVQLQESGPGLVTPSQTLSLTCTVSGGSISSGGHYWTWIRQHPGKGLEWIGYIYYSGSTYYNPSLKSRLTISVDTSKNQFSLKLSSVAAADTAVYYCARDRGGSGSYWDYWGQGTLVTVSS
# VL: EIVLTQSPGTLSLSPGERATLSCRGSRSVSSGYLAWYQQKPGQAPRLLIYGVSIRATGIPDRFSGSGSGTDFTLTISRLEPEDFAVYYCQQYHGSPLTFGGGTKVEIKR
# B2: 2.13.1(E)wtg1 (antibody, V domains shown)
# VH: B1 VH with Z1E
# VL: B1 VL
# B3: 215 (antibody, V domains shown)
# VH: ZVQLQESGPGLVKPSQTLSLTCTVSGGSINSGDYYWSWIRQHPGKGLEWIGHISYRGTTYYNPSLKSRVTISVDTSKNQFSLKLSSVTAADTAVYCCARDRGGGFFDLWGRGTLVTVSS
# VL: B1 VL with G25A, V29L, V52A, G69A, H93N, G94Y, K104R, K108N
# B4: 435 (antibody, V domains shown)
# VH: ZLQLQESGPGLVKPSETLSLTCTVSGGSIDSRIYYWGWIRQPPGKGLEWIGSIYYRGSTYYNPSLKSRVTISVDTPKNQFSLKLNSVTAADTAVYYCAREDSSAWVFDYWGQGTLATVSS
# VL: EIVLTQSPGTLSLSPGERATLSCRASQSVRNNYLNWYQQKPGQAPRLLIYGAFSRATGIPDRFSGSGSGTDFTLTISSLEPEDFVVYYCQQYGNSIDSFGQGTKLEINR
# B5: 351 (antibody, V domains shown)
# VH: ZVQLVESGGGVVQPGRSLRLSCAASGFTFSHYGMHWVRQAPGKGLEWVAVISYDGRNKYYVDSVKGRFTISRDNSKNTLYLQMNSLRAEDTAVFYCAREKGGSGWPPFYYYYGMDVWGQGTTVTVSS
# VL: DIVMTQTPLSLSVTPGQPASISCKSSQNLLYSDGETYLCWYLQKPGQPPQLLIYEVSNRFSGVPERFSGSGSGTDFTLKISRVEAEDVGIYYCMQNVQLPLTFGGGTRVEIKR
# B6: 2.5.1 (antibody, V domains shown)
# VH: ZVQLVQSGTEVKKPGESLKISCKGSGYTVTSYWIGWVRQMPGKGLEWMGFIYPGDSETRYSPTFQGQVTISADKSFNTAFLQWSSLKASDTAMYYCARVGSGWYPYTFDIWGQGTMVTVSS
# VL: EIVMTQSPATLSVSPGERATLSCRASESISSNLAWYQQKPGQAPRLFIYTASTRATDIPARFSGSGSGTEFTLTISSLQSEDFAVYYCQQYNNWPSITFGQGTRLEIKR
# B7: IL-18BP-Fc (Fc fusion, UniProt O95998 31-194, looked up, not shown: a dimerising Fc or GST)
# chain: TPVSQTTTAATASVRSTKDPCPSQPPVFPAAKQCPALEVTWPEVEVPLNGTLSLSCVACSRFPNFSILYWLGNGSFIEHLPGRLWEGSTSRERGSTGTQLCKALVLEQLTPALHSTNFSCVLVDPEQVVQRHVVLAQLWAGLRATLPPTQEALPSSHSSPQQQG
# B8: 413 (antibody, V domains shown)
# VH: ZTQLQESGPGLVKPSETLSLTCTVSGGSISSRVYYWGWIRQPPGKGLEWIGSIYYSGSTYYSPSLKSRVTISVDTSKNQFSLKLSSVTAADTAIYYCAREDSSAWVFEHWGQGTLVTVSS
# VL: EIVLTQSPDTLSLSPGERATLSCRASQILSRNYLAWYQQKPGQAPRLLIYGISIRATGIPDRFSGSGSGADFTLTINRLEPEDFAVYYCQHYDNSLCSFGQGTKLEVKR
# Tests used:
# [1] = molecular target: T1, NEM-huIL-18 (recombinant mature human IL-18 treated with N-ethyl maleiamide) (human, UniProt Q14116 37-193, cysteines protected with N-ethyl maleiamide (NEM)); experiment: cell-based or functional assay
# [2] = molecular target: T1, NEM-huIL-18 (recombinant mature human …); experiment: cell-based or functional assay; remark: listed apart in the source
# [3] = molecular target: T2, natural human IL-18 (endogenous, human whole blood) (human, UniProt Q14116 37-193); experiment: cell-based or functional assay
# [4] = molecular target: T1, NEM-huIL-18 (recombinant mature human …); experiment: Biacore, NEM-cys protected rhuIL-18
# 125I labeled rhu-IL-18 [5] = molecular target: T3, 125I labeled rhu-IL-18 (human, UniProt Q14116 37-193, NEM-treated cysteines; 125I label on lysine residues); experiment: RBA: inhibition of 125I-rhu-IL-18 binding to IL-18Rαβ on KG-1 cells
# [6] = molecular target: recombinant mature human IL-18 (preparation not specified) (human, UniProt Q14116 37-193); experiment: cell-based or functional assay
# [7] = molecular target: T2, natural human IL-18 (endogenous, human …); experiment: cell-based or functional assay; remark: listed apart in the source
# 125I labeled rhu-IL-18 [8] = molecular target: T3, 125I labeled rhu-IL-18; experiment: RBA: inhibition of 125I-rhu-IL-18 binding to IL-18Rαβ on KG-1 cells; remark: listed apart in the source
binder,measurement,setting,value
B1,"KG-1 Assays (IC50, M), NEM-rhuIL-18",[1],2e-10 M and 1e-10 M and 7e-11 M
B2,"KG-1 (IC50, nM)",[2],0.12 nM
same,"WBA (IC50, nM)",[3],2 nM
same,Kd,[4],0.2 nM
same,IC50,125I labeled rhu-IL-18 [5],0.2 nM
B3,"KG-1 Assays (IC50, M), NEM-rhuIL-18",[1],1e-10 M and 3e-10 M
B4,"KG-1 Assays (IC50, M), NEM-rhuIL-18",[1],8e-10 M and 7e-10 M and 4e-10 M
B5,"KG-1 Assays (IC50, M), NEM-rhuIL-18",[1],2e-10 M
B6,"KG-1 Assays (IC50, M), NEM-rhuIL-18",[1],3e-10 M and 4e-10 M
B7,"KG-1, Neutralization Potency in vitro (IC50, nM)",[6],0.03 nM
same,"WBA, Neutralization Potency in vitro (IC50, nM)",[7],5.7 nM
same,IC50,125I labeled rhu-IL-18 [8],1 nM
B8,"KG-1 Assays (IC50, M), NEM-rhuIL-18",[1],1e-09 M and 7e-10 M
